The text below walks through data of paper PMC9972897 (Science immunology, 2023).

Experiment [1] addresses SARS-CoV-2 fusion peptide (FP) coldspot peptide, 812-831 (SARS-CoV-2 (ancestral), biotin-Ahx at the N-terminus; C-terminal amidation).
Experiment [2] has as its target SARS-CoV-2 S-2P ectodomain trimer (ancestral) (SARS-CoV-2 (ancestral, MN908947), stabilised).
Experiment [3] addresses SD1-RBD of SARS-CoV-2 S (ancestral), aa 319-591 (SARS-CoV-2, ancestral (Wuhan-Hu-1; …, UniProt P0DTC2).

B1: fp.010 (antibody, V domains shown)
VH: EVQLLESGGGLVQPGGSLRLSCAASGFTFSTYAMNWVRQAPGKGLEWVSAISSSGLSTQYADSVRGRFTISRDTSKNTLYLHMNSLRAGDTAVYYCAKVEYSGYDPRGPFDSWGQGTLVTVSS
VL: DIQMTQSPSTLSASVGDRVTITCRASQSISGWLAWYQQKPGRAPKLLIYKASSLERGVPSRFSGSGSGTEFTLTISSLQPDDFATYYCQEYSSYPLCTFGQGTKLEIK
As to B1, the binding result in experiment [1] was “binds”.

B2: hr2.014 (antibody, V domains shown)
VH: QVQLVQSGAEVKKPGASVKVSCKASGYTFTTYAVHWLRQVPGQRPEWIGWINAANGNTKYSEKFQGRVTITRDTSASTAYMDLRSLRSEDTAVYYCARLLVVRDDPYYYGMDVWGQGTTVTVSS
VL: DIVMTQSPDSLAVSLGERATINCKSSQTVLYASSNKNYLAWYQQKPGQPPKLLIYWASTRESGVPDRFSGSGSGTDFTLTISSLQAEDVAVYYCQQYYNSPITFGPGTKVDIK
For the molecule B2, the binding result in experiment [2] was “binds”.

B3: hr2.018 (antibody, V domains shown)
VH: EVQLVESGGGLVKPGGSLRLSCVASGSSVIDAWMNWVRQAPGKGLEWVGRIKSKTNGATTDYAAPVKGRFTISRDDSKNLSYLQMNSLKTEDTGIYYCTTSPLPNFDYWGRGTLVTVSS
VL: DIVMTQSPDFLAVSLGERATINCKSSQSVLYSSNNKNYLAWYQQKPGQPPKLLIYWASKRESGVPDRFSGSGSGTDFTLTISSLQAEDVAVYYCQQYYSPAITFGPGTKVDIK
As for B3, in experiment [2], the binding result is reported as “binds”.

B4: hr2.019 (antibody, V domains shown)
VH: EVQLVESGGGLVKPGGSLRLSCAASGSSVIDVWMNWVRQAPGKGLEWVGRIKTKASGAATDYGAPVKGRFTISRDDSKNLSYLQMNSLRAEDTGIYYCTTSPLPNFDYWGRGTLVTVSS
VL: DIVMTQSPDFLAVSLGETATINCRSSQSVFYFANNKNYLAWYQQKPGQPPKLLIYWASKRESGVPDRFSGSGSGTDFTLTISSLQAEDVATYYCQQYSSPAITFGPGTKVDIK
Turning to B4, the binding result in experiment [2] was “binds”.

B5: hr2.025 (antibody, V domains shown)
VH: EVQLVQSGAEVKKPGESLKISCKGSGYSFTNYWIAWVRLMPGKGLEWMGFIFPGDSDTRYSPSFQGQVTISADKSISTAYLQWSSLKASDTAIYYCARRRGNSGNHDPYGMDVWGHGTTVTVSS
VL: not shown
In the case of B5, in experiment [2], the binding result is given as “binds”.

B6: hr2.090 (antibody, V domains shown)
VH: EVQLLESGGGLVQPGGSLRLSCAASGVTFSRYAMSWVRQAPGKGLEWVSTISGGGGGTYYADSVKGRFTISRDNSKNTLYLQMNSLRAEDTAVYYCATLLTVPGPYYFEYWGQGTLVTVSS
VL: EIVLTQSPGTLSLSPGERATLSCRASQSVSSSYLAWYQQKPGQAPRLLIYGASSRATGIPDRFSGSGSGTDFTLTISRLESEDFAVYYCQHSRFTFGPGTRVDIK
In the case of B6, in experiment [2], the binding result is listed as “binds”.

B7: hr2.020 (antibody, V domains shown)
VH: EVQLVQSGAEVKKPGESLKISCKGSGYRFASHWIGWVRQMPGKGLQWMGIIYPGDSDTKYSPSFQGQVTISADKSINTVYLHWTSLKASDTAVYYCARRPPHLDGGDSPIRFDHWGQGTLVTVSS
VL: QSVLTQPPSASGTPGQRVTISCSGSRSNIGSNDVYWYQQFPGTAPKLLIYRNNQRPSGVPDRFSGSKSGTSASLAISGLRSEDEADYYCATWDDRLTGVFGGGTKLTVV
Take B7: in experiment [2], the binding result is “binds”.

B8: hr2.012 (antibody, V domains shown)
VH: QVQLVQSGAEVKKPGASVKVSCKASGYTFTSHYIHWVRQAPGQGLEWMGIIKPSGGNTIYAQTFQGRVTMTRDTSTSTVYMELRSLTSDDTAVYYCARDQDHGLQRWGQGTLVTVSS
VL: QSVLTQPPSVSAPPGQKVTISCSGSSSNIGNNFVSWYQQLPGTAPKLLIYDNIERPSGIPDRFSGSRSGTSATLGITGLQTGDEADYYCGTWDTSLGAWVFGGGTKVTVL
For the molecule B8, the binding result in experiment [2] is recorded as “binds”.

B9: hr2.015 (antibody, V domains shown)
VH: QVQLVQSGAEVKKPGASVKVSCKASGYTFSSYYVNWVRQAPGQGLEWLGIINRSGSSTIYAQKFQGRVTMTRDTSTSTVYLELSSLRSEDTAVYYCARDQDHALHWGQGTLVTVSS
VL: QSVLTQPPSVSAAPGQKVTISCSGSSSNIGSNYVSWYQQLPGTAPKLLIYDNSERPSGIPDRFSGSRSGTSATLGITGLQTGDEADYYCGTWDTSLSAWVFGGGTKLTVL
Take B9: in experiment [2], the binding result was “binds”.

B10: hr2.013 (antibody, V domains shown)
VH: QVQLVQSGAEVKKPGASVKISCKASGYTFTNNYMNWVRQAPGQGLEWMGIIKPSSGSTIYAHKFQGRVTMTRDTSTSTVYMEVRSLTSEDTAVYYCARDQDHGLQNWGQGTLVTVSS
VL: QSVLTQPPSVSAASGQKVTIYCSGSSSNIASNFVSWYQQFPGTAPKLLIYDNNQRPSGIPDRFSGSRSGTSATLGITGLQTGDEADYYCGTWDTSLGAWVFGGGTKLTVL
On to B10, for which, in experiment [2], the binding result is “binds”.

B11: rbd.049 (antibody, V domains shown)
VH: QLQLQESGPGLVKPSETLSLSCTVSGGSISSKSDYWGWIRQSPGKGLEWIGSIYYTGTTYYNPSLKSRVSISLDKSKNQFSLKLNSLTAADTALYYCARDPSIAVATTVYFDAWGQGTLVTVSS
VL: EIVLTQSPGTLSLSPGERATLSCRASESVKSNYLAWYQQKLGQPPRLLIFGASTRATGIPDRFSGSGSGTDFTLTISRLEPEDFAVYYCQQYHTSPPRYTFGQGTKLEIK
On to B11, for which the binding result in experiment [3] is on record as “binds”.

B12: hr2.017 (antibody, V domains shown)
VH: EVQLVESGGGLVQPGGSLRLSCAVSGFAFSSSWMHWIRQAPGRGLVWVSRINRDGSTTDYADSVKGRFTISRDNAKATLYLQMNSLRAEDTAVYYCATMGFDYWGQGALVTVSS
VL: DIVMTQSPDSLAVSLGERATINCKSSQNVLYSSNNKNHLSWYQQKPGQPPKLLIYWASTRKSGVPDRFSGSGSGTDFTLTINSLQAEDVAVYYCQQYFSTPNTFGQGTKLEIK
Take B12: the binding result in experiment [2] is recorded as “binds”.

B13: hr2.086 (antibody, V domains shown)
VH: EVQLLESGGGLVQPGGYLRLSCAASGFTFSSYAMSWVRQAPGKGLEWVSVISGGGGSAYYADSVKGRFTISRDNSKNTLYLQMNSLRAEDTAVYYCAKIGMILVFDYWGQGTLVTVSS
VL: EIVLTQSPGTLSLSPGERATLSCRASQSVSNNYLAWYQQKPGQAPRLLISGASSRATGIPDRFSGSGSGTDFTLTISRLEPEDFAVYYCQQYGSSPPTFGQGTKVEIK
Consider B13, for which the binding result in experiment [2] is listed as “binds”.

B14: hr2.094 (antibody, V domains shown)
VH: EVQLVESGGGLVQPGGSLRLSCAASGFTFSTFWMTWVRQAPGKGLEWVANIKSDGSEKYYVDSVKGRFTISRDNAKNSLYLQMNSLRAEDTAVYYCATWFGLHWGQGTLVTVSS
VL: DIVMTQSPDSLAVSLGERASINCKSSQTVLYSSNNKNYLAWYQQKPGQPPKLLIHWASTRDSGVPDRFSGSGSGTDFTLTISSLQAEDVAVYYCQQYHRIPWTFGRGTKVEIK
B14: in experiment [2], the binding result is “binds”.

B15: hr2.021 (antibody, V domains shown)
VH: QVQLVQSGAEVKKPGASVKVSCKASEAIFSGSYLHWVRQAPGQGLEWMGIITPSGDKTFYAQRFQGRLTMTRDTSTNTLHMHLSGLNSEDTAMYYCARQADKGGWDYWGQGTLVTVSS
VL: EIVLTQSPGTLSLSPGERATLSCRASQSVTSNYVAWYQQKPGQAPRLLIYGASTRATGIPDRFSGGGSGTDFTLTITRLEPEDFAVYYCQQYGSSPPTFTFGPGTKVDIK
For B15, the binding result in experiment [2] was “binds”.

B16: hr2.024 (antibody, V domains shown)
VH: QVQLVQSGAEVKKPGASVKVSCKASEDIFTDSYLHWVRQAPGQGLEWMGIITPSGDKTFYAQQFQGRLTMTRDPSTNTLYMFLSGLRSDDTAMYFCARQAEKGGWDYWGHGTLVTVSS
VL: EIVLTQSPGTLSLSPGQRATLSCRSSQTITSNYLAWYQQRPGQAPRLLIYGASIRATGIPDRFSGSGSGTDFTLTISRLEPEDFAVYYCQQYGSSPPTFIFGPGTKVDIK
For B16, the binding result in experiment [2] is given as “binds”.
